Experimental data taken from patent US20050112126A1 (Genentech, published 2005).

T1: VEGF121 (human, UniProt P15692 27-147)
T1 construct: mature; Immobilized on the biosensor chip via primary amino groups; also called Purified VEGF121
T1 sequence (looked up): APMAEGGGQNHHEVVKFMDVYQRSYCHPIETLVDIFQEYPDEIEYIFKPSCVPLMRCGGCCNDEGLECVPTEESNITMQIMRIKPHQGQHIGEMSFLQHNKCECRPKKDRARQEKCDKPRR


Columns and labels:
VEGF [1] = target: T2, VEGF (human, UniProt P15692-4 27-191, limits assumed); test: BIAcore-2000 SPR, Fab over immobilized VEGF, 25 C
T2 construct: Biotinylated in the KDR-IgG ELISA, amine-coupled to the chip in BIAcore; also called biotinylated VEGF; vascular endothelial growth factor
Protocol: (§1) BIAcore Analysis: The VEGF-binding affinities of Fab fragments were calculated from association and dissociation rate constants measured using a BIAcore-2000™ surface plasmon resonance system (BIAcore, Inc., Piscataway, N.J.). A biosensor chip was activated for covalent coupling of VEGF using N-ethyl-N′-(3-dimethylaminopropyl)-carbodiimide hydrochloride (EDC) and N-hydroxysuccinimide (NHS) according to the supplier's (BIAcore, Inc., Piscataway, N.J.) instructions. VEGF was buffered exchanged into 20 mM sodium acetate, pH 4.8 and diluted to approximately 50 μg/mL. An aliquot (35 μL) was injected at a flow rate of 2 μL/min to achieve approximately 700-1400 response units (RU) of coupled protein. Finally, 1 M ethanolamine was injected as a blocking agent.
(§2) For kinetics measurements, two-fold serial dilutions of Fab were injected in PBS/TWEEN™ buffer (0.05% TWEEN 20™ in phosphate buffered saline) at 25° C. at a flow rate of 10 μL/min. […] Equilibrium dissociation constants, Kd's from surface plasmon resonance (SPR) measurements were calculated as koff/kon.

VEGF [2] = target: T2, VEGF; test: BIAcore-2000 SPR, relative to Y0192
Protocol: as §1, §2
Target sequence in this assay (P15692 other isoform, or with tags, fused parts or gaps limits assumed): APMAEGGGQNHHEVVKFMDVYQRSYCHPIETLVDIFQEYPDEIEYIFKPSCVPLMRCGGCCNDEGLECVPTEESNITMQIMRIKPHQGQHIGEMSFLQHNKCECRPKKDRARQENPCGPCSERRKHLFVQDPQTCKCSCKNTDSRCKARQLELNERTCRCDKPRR

VEGF [3] = target: T2, VEGF; test: BIAcore-2000 SPR, Fab over immobilized VEGF, 25 C; off-rate near detection limit
Protocol: as §1, §2

VEGF [4] = target: T2, VEGF; test: competition ELISA (biotinylated VEGF to KDR-IgG)
Protocol: Standards (6.9-440 ng/ml chimeric F(ab)) and two-fold serial of samples were incubated with 2 nM biotinylated VEGF for 1 h in tubes. The solutions from the tubes were then transferred to the ELISA plates and incubated for 1 h. […] Titration curves were fit with a four-parameter nonlinear regression curve-fitting program (KaleidaGraph, Synergy Software, Reading Pa.). […] Assays for full-length IgG were the same as for the F(ab)s except that the assay buffer contained 10% human serum.

VEGF121 = target: T1, VEGF121; test: BIAcore SPR, Fab over immobilized VEGF121
Protocol: VEGF₁₂₁ was covalently immobilized on the biosensorchip via primary amino groups. Binding of humanized A4.6.1 Fab variants was measured by flowing solutions of Fab in PBS/0.05% TWEEN 20™ over the chip at a flow rate of 20 μL/min. Following each binding measurement, residual Fab was stripped from the immobilized ligand by washing with 5 μL of 50 mM aqueous HCl at 3 μL/min. Binding profiles were analyzed by nonlinear regression using a simple monovalent binding model (BIAevaluation software v2.0; Pharmacia).

| Binder | Kd (VEGF [1]) [nM] | koff (VEGF [1]) [s⁻¹] | kon (VEGF [1]) [M⁻¹ s⁻¹] | Kd (wt)/Kd (mut) (VEGF [2]) [ratio] | other results |
| --- | --- | --- | --- | --- | --- |
| Y0238-1 (Fab, V domains shown, From library YC-81 on the pY0192 template; Soluble Fab) VH: EVQLVESGGGLVQPGGSLRLSCAASGYTFTNYGINWVRQAPGKGLEWVGWINTYTGEPTYAADFKRRFTFSLDTSKSTAYLQMNSLRAEDTAVYYCAKYPYYRGTSHWYFDVWGQGTL VL: DIQLTQSPSSLSASVGDRVTITCRANEQLSNYLNWYQQKPGKAPKVLIYFTSSLHSGVPSRFSGSGSGTDFTLTISSLQPEDFATYYCQQYSTVPWTFGQGTKVEIKR | 0.4 | 9e-06 | 26000 | 7.3 | – |
| Y0238-3 (Fab, V domains shown, Soluble Fab) VH: EVQLVESGGGLVQPGGSLRLSCAASGYTFTNYGINWVRQAPGKGLEWVGWINTYTGEPTYAADFKRRFTFSLDTSKSTAYLQMNSLRAEDTAVYYCAKYPYYYGTSHWYFDVWGQGTL VL: DIQLTQSPSSLSASVGDRVTITCRANEQLSNYLNWYQQKPGKAPKVLIYFTSSLHSGVPSRFSGSGSGTDFTLTISSLQPEDFATYYCQQYSTVPWTFGQGTKVEIKR | ≤ 0.2 | – | 17000 | ≥ 14 | koff (VEGF [3]): ≤ 4e-06 s⁻¹ |
| Y0238-5 (Fab, V domains shown, From library YC-81 on the pY0192 template; Soluble Fab) VH: EVQLVESGGGLVQPGGSLRLSCAASGYTFTNYGINWVRQAPGKGLEWVGWINTYTGEPTYAADFKRRFTFSLDTSKSTAYLQMNSLRAEDTAVYYCAKYPYYIAKSHWYFDVWGQGTL VL: DIQLTQSPSSLSASVGDRVTITCRANEQLSNYLNWYQQKPGKAPKVLIYFTSSLHSGVPSRFSGSGSGTDFTLTISSLQPEDFATYYCQQYSTVPWTFGQGTKVEIKR | 0.9 | 8e-06 | 8000 | 3.2 | – |
| Y0238-10 (Fab, V domains shown, From library YC-81 on the pY0192 template; Soluble Fab) VH: EVQLVESGGGLVQPGGSLRLSCAASGYTFTNYGINWVRQAPGKGLEWVGWINTYTGEPTYAADFKRRFTFSLDTSKSTAYLQMNSLRAEDTAVYYCAKYPYYRNTSHWYFDVWGQGTL VL: DIQLTQSPSSLSASVGDRVTITCRANEQLSNYLNWYQQKPGKAPKVLIYFTSSLHSGVPSRFSGSGSGTDFTLTISSLQPEDFATYYCQQYSTVPWTFGQGTKVEIKR | 0.6 | 9e-06 | 16000 | 4.8 | – |
| Y0243-1 (Fab, V domains shown, Soluble Fab) VH: EVQLVESGGGLVQPGGSLRLSCAASGYDFTHYGMNWVRQAPGKGLEWVGWINTYTGEPTYAADFKRRFTFSLDTSKSTAYLQMNSLRAEDTAVYYCAKYPHYYGSSHWYFDVWGQGTL VL: DIQLTQSPSSLSASVGDRVTITCRANEQLSNYLNWYQQKPGKAPKVLIYFTSSLHSGVPSRFSGSGSGTDFTLTISSLQPEDFATYYCQQYSTVPWTFGQGTKVEIKR | 0.7 | 4.5e-05 | 67000 | 4.1 | – |
| Y0244-1 (Fab, V domains shown, Soluble Fab) VH: EVQLVESGGGLVQPGGSLRLSCAASGYTFTNYGINWVRQAPGKGLEWVGWINTYTGEPTYAADFKRRFTFSVDVSKSTAYLQMNSLRAEDTAVYYCAKYPHYYGSSHWYFDVWGQGTL VL: DIQLTQSPSSLSASVGDRVTITCRANEQLSNYLNWYQQKPGKAPKVLIYFTSSLHSGVPSRFSGSGSGTDFTLTISSLQPEDFATYYCQQYSTVPWTFGQGTKVEIKR | 8 | 0.00027 | 34000 | 3.6 | – |
| Y0244-4 (Fab, V domains shown, Soluble Fab) VH: EVQLVESGGGLVQPGGSLRLSCAASGYTFTNYGINWVRQAPGKGLEWVGWINTYTGEPTYAADFKRRFTFSIDKSKSTAYLQMNSLRAEDTAVYYCAKYPHYYGSSHWYFDVWGQGTL VL: DIQLTQSPSSLSASVGDRVTITCRANEQLSNYLNWYQQKPGKAPKVLIYFTSSLHSGVPSRFSGSGSGTDFTLTISSLQPEDFATYYCQQYSTVPWTFGQGTKVEIKR | 3.3 | 0.00017 | 52000 | 0.9 | – |
| Y0313-3 (Fab, V domains shown, Soluble Fab) VH: EVQLVESGGGLVQPGGSLRLSCAASGYTFTNYGINWVRQAPGKGLEWVGWINTYTGEPTYAADFKRRFTFSLDTSKSTAYLQMNSLRAEDTAVYYCAKYPYYYGSSHWYFDVWGQGTL VL: DIQLTQSPSSLSASVGDRVTITCRANEQLSNYLNWYQQKPGKAPKVLIYFTSSLHSGVPSRFSGSGSGTDFTLTISSLQPEDFATYYCQQYSTVPWTFGQGTKVEIKR | 0.65 | 8.1e-06 | 12000 | 4.5 | – |
| F(ab)-8 (Fab, V domains shown, F(ab)-5 with IleH69Phe and LeuH78Ala; Kabat numbers; Fab with human CH1 and CL) VH: EVQLVESGGGLVQPGGSLRLSCAASGYTFTNYGMNWVRQAPGKGLEWVGWINTYTGEPTYAADFKRRFTFSLDTSKNTAYLQMNSLRAEDTAVYYCARYPHYYGSSHWYFDVWGQGTLVTVSS VL: DIQMTQSPSSLSASVGDRVTITCSASQDISNYLNWYQQKPGKAPKVLIYFTSSLHSGVPSRFSGSGSGTDFTLTISSLQPEDFATYYCQQYSTVPWTFGQGTKVEIK | – | – | – | – | EC50 F(ab)-X / EC50 chimeric F(ab) (VEGF [4]): 9.6 ratio; fold improvement in binding vs F(ab)-5 (VEGF [4]): 8 fold |
| F(ab)-9 (Fab, V domains shown, F(ab)-8 with GlyH49Ala; Kabat numbers; Fab with human CH1 and CL) VH: EVQLVESGGGLVQPGGSLRLSCAASGYTFTNYGMNWVRQAPGKGLEWVAWINTYTGEPTYAADFKRRFTFSLDTSKNTAYLQMNSLRAEDTAVYYCARYPHYYGSSHWYFDVWGQGTLVTVSS VL: DIQMTQSPSSLSASVGDRVTITCSASQDISNYLNWYQQKPGKAPKVLIYFTSSLHSGVPSRFSGSGSGTDFTLTISSLQPEDFATYYCQQYSTVPWTFGQGTKVEIK | – | – | – | – | EC50 F(ab)-X / EC50 chimeric F(ab) (VEGF [4]): > 150 ratio; fold reduction in binding vs F(ab)-8 (VEGF [4]): 15 fold |
| hu2.6 (Fab, name in Kabat numbering, V domains shown, soluble Fab with human constant domains) VH: EVQLVESGGGLVQPGGSLRLSCAASGYTFTNYGMNWIRQAPGKGLEWVGWINTYTGEPTYAADFKRRTTISLDTSASTVYLQMNSLRAEDTAVYYCAKYPHYYGSSHWYFDVWGQGTLVTVSS VL: DIQLTQSPSSLSASVGDRVTITCSASQDISNYLNWYQQKPGKAPKLLIYFTSSLHSGVPSRFSGSGSGTDFTLTISSLQPEDFATYYCQQYSTVPWTFGQGTKVEIK | – | – | – | – | KD(A4.6.1)/KD(mut) as headed (values read as KD(mut)/KD(A4.6.1)) (VEGF121): 40 ratio; Kd (VEGF121): 67 nM; koff (VEGF121): 0.00045 s⁻¹; kon (VEGF121): 6700 M⁻¹ s⁻¹ |
| hu2.7 (Fab, name in Kabat numbering, V domains shown, soluble Fab with human constant domains) VH: EVQLVESGGGLVQPGGSLRLSCAASGYTFTNYGMNWIRQAPGKGLEWVGWINTYTGEPTYAADFKRRFTISRDNSKNTVYLQMNSLRAEDTAVYYCAKYPHYYGSSHWYFDVWGQGTLVTVSS VL: DIQLTQSPSSLSASVGDRVTITCSASQDISNYLNWYQQKPGKAPKLLIYFTSSLHSGVPSRFSGSGSGTDFTLTISSLQPEDFATYYCQQYSTVPWTFGQGTKVEIK | – | – | – | – | KD(A4.6.1)/KD(mut) as headed (values read as KD(mut)/KD(A4.6.1)) (VEGF121): 230 ratio; Kd (VEGF121): 360 nM; koff (VEGF121): 0.0024 s⁻¹; kon (VEGF121): 6700 M⁻¹ s⁻¹ |
| hu2.10 (Fab, V domains shown, Soluble Fab with human constant domains; also called consensus clone hu2.10) VH: EVQLVESGGGLVQPGGSLRLSCAASGYTFTNYGMNWIRQAPGKGLEWVGWINTYTGEPTYAADFKRRFTISLDTSASTVYLQMNSLRAEDTAVYYCAKYPHYYGSSHWYFDVWGQGTLVTVSS VL: DIQMTQSPSSLSASVGDRVTITCSASQDISNYLNWYQQKPGKAPKLLIYFTSSLHSGVPSRFSGSGSGTDYTLTISSLQPEDFATYYCQQYSTVPWTFGQGTKVEIK | – | – | – | – | KD(A4.6.1)/KD(mut) as headed (values read as KD(mut)/KD(A4.6.1)) (VEGF121): 35 ratio; Kd (VEGF121): 55 nM; fold tighter KD than hu2.0 (VEGF121): ≥ 125 fold; koff (VEGF121): 0.00035 s⁻¹; kon (VEGF121): 6300 M⁻¹ s⁻¹ |
| hu2.10V (Fab, V domains shown, Soluble Fab with human constant domains; also called hu2.10 with mutation VL Leu->Val) VH: EVQLVESGGGLVQPGGSLRLSCAASGYTFTNYGMNWIRQAPGKGLEWVGWINTYTGEPTYAADFKRRFTISLDTSASTVYLQMNSLRAEDTAVYYCAKYPHYYGSSHWYFDVWGQGTLVTVSS VL: DIQMTQSPSSLSASVGDRVTITCSASQDISNYLNWYQQKPGKAPKVLIYFTSSLHSGVPSRFSGSGSGTDYTLTISSLQPEDFATYYCQQYSTVPWTFGQGTKVEIK | – | – | – | – | KD(A4.6.1)/KD(mut) as headed (values read as KD(mut)/KD(A4.6.1)) (VEGF121): 5.8 ratio; Kd (VEGF121): 9.3 nM; fold improvement in KD vs hu2.10 (VEGF121): 6 fold; koff (VEGF121): 0.00018 s⁻¹; kon (VEGF121): 20000 M⁻¹ s⁻¹ |
